Laboratory results: publication PMC7876108, “Cryo-EM structures of engineered active bc1-cbb3 type CIII2CIV super-complexes and electronic communication between the complexes” (Nature Communications, 2021)

T1: cytochrome c1, subunit of bc1-type CIII2 (Rhodobacter capsulatus, UniProt D5ANZ4 22-279)
T1 construct: cytochrome c1 (petC), Rhodobacter capsulatus; Stood within the CIII2 complex (FeS protein, cyt b, cyt c1; a dimer) in the cross-linking and in the cryo-EM maps of native CIII2; also called cyt c1; PetC; source: native CIII2 particles in the bipartite SC + cy sample
T1 sequence (looked up): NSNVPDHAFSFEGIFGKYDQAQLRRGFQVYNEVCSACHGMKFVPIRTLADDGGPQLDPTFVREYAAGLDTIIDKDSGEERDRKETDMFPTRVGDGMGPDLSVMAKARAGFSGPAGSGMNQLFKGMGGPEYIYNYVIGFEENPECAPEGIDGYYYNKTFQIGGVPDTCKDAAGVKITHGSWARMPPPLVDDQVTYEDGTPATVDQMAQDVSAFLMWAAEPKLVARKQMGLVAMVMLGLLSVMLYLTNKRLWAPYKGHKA

T2: cytochrome cy, full length (membrane-anchored) (Rhodobacter capsulatus, UniProt Q05389 1-199)
T2 construct: cytochrome cy (cycY), Rhodobacter capsulatus: 30-residue TMH, 69-residue linker, 100-residue cyt c domain; Only its TMH is resolved in map SC-2A; also called cyt cy; intact cyt cy; source: purified
T2 sequence (looked up): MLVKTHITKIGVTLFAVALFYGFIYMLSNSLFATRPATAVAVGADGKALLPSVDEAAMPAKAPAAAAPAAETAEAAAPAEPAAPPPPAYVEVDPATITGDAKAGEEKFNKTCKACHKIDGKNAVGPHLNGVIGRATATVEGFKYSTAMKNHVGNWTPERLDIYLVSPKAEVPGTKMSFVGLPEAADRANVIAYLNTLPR

T3: CcoP, subunit of cbb3-type CIV (Rhodobacter capsulatus, UniProt D5ARP7 1-297)
T3 construct: CcoP subunit of the cbb3-type CIV, Rhodobacter capsulatus; Stood within purified CIV in the cross-linking
T3 sequence (looked up): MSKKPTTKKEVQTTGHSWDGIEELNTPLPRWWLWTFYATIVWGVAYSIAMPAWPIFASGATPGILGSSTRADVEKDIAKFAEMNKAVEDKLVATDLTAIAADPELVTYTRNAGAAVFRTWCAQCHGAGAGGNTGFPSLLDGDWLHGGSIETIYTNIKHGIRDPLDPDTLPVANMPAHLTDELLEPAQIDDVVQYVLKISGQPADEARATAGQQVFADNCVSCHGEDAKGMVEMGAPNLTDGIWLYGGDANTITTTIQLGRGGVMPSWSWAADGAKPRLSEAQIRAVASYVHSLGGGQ

B1: Rieske FeS protein, subunit of CIII2 (natural protein, Rhodobacter capsulatus)
chain: MSHAEDNAGTRRDFLYHATAATGVVVTGAAVWPLINQMNASADVKAMASIFVDVSAVEVGTQLTVKWRGKPVFIRRRDEKDIELARSVPLGALRDTSAENANKPGAEATDENRTLPAFDGTNTGEWLVMLGVCTHLGCVPMGDKSGDFGGWFCPCHGSHYDSAGRIRKGPAPRNLDIPVAAFVDETTIKLG
notes: Rieske FeS protein (petA), Rhodobacter capsulatus; TMH residues 11-49, external domain (ED) residues 50-191 in the model; also called PetA; FeS-ED (its external domain); source: R. capsulatus pYO76/YO12, subunit of the purified bipartite SC and of the native CIII2 particles in that sample
B2: cyt c1-CcoP fusion subunit of the bipartite SC (His8) (other, Rhodobacter capsulatus, UniProt D5ANZ4 22-279, looked up)
chain: NSNVPDHAFSFEGIFGKYDQAQLRRGFQVYNEVCSACHGMKFVPIRTLADDGGPQLDPTFVREYAAGLDTIIDKDSGEERDRKETDMFPTRVGDGMGPDLSVMAKARAGFSGPAGSGMNQLFKGMGGPEYIYNYVIGFEENPECAPEGIDGYYYNKTFQIGGVPDTCKDAAGVKITHGSWARMPPPLVDDQVTYEDGTPATVDQMAQDVSAFLMWAAEPKLVARKQMGLVAMVMLGLLSVMLYLTNKRLWAPYKGHKASKKPTTKKEVQTTGHSWDGIEELNTPLPRWWLWTFYATIVWGVAYSIAMPAWPIFASGATPGILGSSTRADVEKDIAKFAEMNKAVEDKLVATDLTAIAADPELVTYTRNAGAAVFRTWCAQCHGAGAGGNTGFPSLLDGDWLHGGSIETIYTNIKHGIRDPLDPDTLPVANMPAHLTDELLEPAQIDDVVQYVLKISGQPADEARATAGQQVFADNCVSCHGEDAKGMVEMGAPNLTDGIWLYGGDANTITTTIQLGRGGVMPSWSWAADGAKPRLSEAQIRAVASYVHSLGGGQ
notes: cytochrome c1 (petC), Rhodobacter capsulatus; stop codon eliminated, no linker to CcoP; CcoP subunit of the cbb3-type CIV, Rhodobacter capsulatus; start codon eliminated; About 65 kDa; Stood within the bipartite SC; also called petC::ccoP-His8; source: R. capsulatus pYO76/YO12, subunit of the purified bipartite SC; not shown: His8, C-terminal, kept
B3: cytochrome c2 (natural protein, Rhodobacter capsulatus, UniProt P00094 22-137, looked up)
chain: GDAAKGEKEFNKCKTCHSIIAPDGTEIVKGAKTGPNLYGVVGRTAGTYPEFKYKDSIVALGASGFAWTEEDIATYVKDPGAFLKEKLDDKKAKTGMAFKLAKGGEDVAAYLASVVK
notes: soluble cytochrome c2, Rhodobacter capsulatus; also called cyt c2; source: purified R. capsulatus cyt c2
B4: cytochrome b, subunit of CIII2 (natural protein, Rhodobacter capsulatus)
chain: MSGIPHDHYEPKTGIEKWLHDRLPIVGLVYDTIMIPTPKNLNWWWIWGIVLAFTLVLQIVTGIVLAMHYTPHVDLAFASVEHIMRDVNGGWAMRYIHANGASLFFLAVYIHIFRGLYYGSYKAPREITWIVGMVIYLLMMGTAFMGYVLPWGQMSFWGATVITGLFGAIPGIGPSIQAWLLGGPAVDNATLNRFFSLHYLLPFVIAALVAIHIWAFHTTGNNNPTGVEVRRTSKADAEKDTLPFWPYFVIKDLFALALVLLGFFAVVAYMPNYLGHPDNYVQANPLSTPAHIVPEWYFLPFYAILRAFAADVWVVILVDGLTFGIVDAKFFGVIAMFGAIAVMALAPWLDTSKVRSGAYRPKFRMWFWFLVLDFVVLTWVGAMPTEYPYDWISLIASTYWFAYFLVILPLLGATEKPEPIPASIEEDFNSHYGNPAE
notes: cytochrome b (petB), Rhodobacter capsulatus; also called cyt b; PetB

How the values were obtained:
[1] = biological target: T1, cytochrome c1, subunit of bc1-type CIII2; assay: cryo-EM structure; native CIII2 particles in the bipartite SC + cy samples; maps CIII2 (3.3 A), CIII2 c-c (3.8 A), b-c (4.2 A), b-b (3.5 A); details: both partners purified
[2] = biological target: B4; assay: as above; details: both partners purified
[3] = biological target: T2, cytochrome cy, full length …; assay: cross-linking; XL-MS: cyt cy with CIII2CIV, DMTMM; details: both partners purified
[4] = biological target: B4; assay: cryo-EM structure; purified bipartite SC mixed with 5-fold molar excess of purified cyt cy; map SC-2A, 5.2 A; models fitted as rigid bodies; details: both partners purified
[5] = biological target: T1, cytochrome c1, subunit of bc1-type CIII2; assay: cross-linking; XL-MS: 300 ug purified bc1-type CIII2 with 2-fold molar excess of cyt c2, 20 mM DMTMM, 1 h, room temperature, low salt (20 mM Na-phosphate pH 7.4, 1 mM NaCl, 0.01% DDM); details: both partners purified
[6] = biological target: T3, CcoP, subunit of cbb3-type CIV; assay: cross-linking; XL-MS: 300 ug purified cbb3-type CIV with 2-fold molar excess of cyt c2, 20 mM DMTMM, 1 h, room temperature, low salt (20 mM Na-phosphate pH 7.4, 1 mM NaCl, 0.01% DDM); details: both partners purified
[7] = biological target: the molecule itself; assay: cryo-EM structure; purified bipartite SC mixed with 5-fold molar excess of purified cyt cy; map SC-2A, 5.2 A; models fitted as rigid bodies

Binder: B1
binding result [1]: binds
binding result [2]: binds
binding result [3]: binds

Binder: B2
binding result [3]: binds
binding result [4]: binds

Binder: B3
binding result [5]: binds
binding result [6]: binds

Binder: B4
binding result [7]: binds
